Results as given in FireProtDB (doi:10.1016/s0167-4838(99)00132-6).

Conditions: Escherichia coli (strain K12), Thermal, DSC, KH2PO4-KOH 10 mM, reversible: no, whole UniProt chain shown

B1: Glyceraldehyde-3-phosphate dehydrogenase A wild type, P0A9B2 (protein)
chain: MTIKVGINGFGRIGRIVFRAAQKRSDIEIVAINDLLDADYMAYMLKYDSTHGRFDGTVEVKDGHLIVNGKKIRVTAERDPANLKWDEVGVDVVAEATGLFLTDETARKHITAGAKKVVMTGPSKDNTPMFVKGANFDKYAGQDIVSNASCTTNCLAPLAKVINDNFGIIEGLMTTVHATTATQKTVDGPSHKDWRGGRGASQNIIPSSTGAAKAVGKVLPELNGKLTGMAFRVPTPNVSVVDLTVRLEKAATYEQIKAAVKAAAEGEMKGVLGYTEDDVVSTDFNGEVCTSVFDAKAGIALNDNFVKLVSWYDNETGYSNKVLDLIAHISK
pH 6
  Tm: 75.3 °C
  unfolding enthalpy (calorimetric): 908 kcal/mol
pH 8
  Tm: 72.6 °C
  unfolding enthalpy (calorimetric): 1080 kcal/mol
